Article PMC13354580 (Nature Communications, 2026)

Molecular target: fluorescent Aβ (1–42) (fluorophore label; fluorophore and position not stated)
Assay: fluorescence polarisation

fold reduction in the calculated Kd against WT: ~11 fold
B1: ABAD Y168G mutant, purified protein (enzyme, human)
chain: MAAACRSVKGLVAVITGGASGLGLATAERLVGQGASAVLLDLPNSGGEAQAKKLGNNCVFAPADVTSEKDVQTALALAKGKFGRVDVAVNCAGIAVASKTYNLKKGQTHTLEDFQRVLDVNLMGTFNVIRLVAGEMGQNEPDQGGQRGVIINTASVAAFEGQVGQAAGSASKGGIVGMTLPIARDLAPIGIRVMTIAPGLFGTPLLTSLPEKVCNFLASQVPFPSRLGDPAEYAHLVQAIIENPFLNGEVIRLDGAIRMQP
